Measured values as given in paper PMC11610669, “A Spectroscopic Study on the Amyloid‐β Interaction with Clicked Peptide‐Porphyrin Conjugates: a Vision Toward the Detection of Aβ Peptides in Aqueous Solution” (Chembiochem, 2024).
“Also recorded” adds a separate entry of the source.

What was measured:
[1] = CD control: β-sheet propensity of the conjugates alone; assay type: physicochemical; conditions: 10 mM phosphate buffer pH 7.4, room temperature, up to 120 h
Description: The UV‐Vis spectra of porphyrin‐peptide conjugates (5 μM) were recorded in the presence of an equimolar ration of Aβ42 monomers at 0, 24, 48 and 120 h (Figure 2S). […] Therefore, the interaction of the peptide‐porphyrin conjugates with Aβ was further studied using CD spectroscopy. The Aβ42 aggregation process was monitored either in the absence or in the presence of an equimolar amount of the conjugated peptides. A series of CD control experiments were preventively carried out to assess the propensity of the porphyrin‐peptide conjugates to adopt a β‐sheet conformation. The corresponding CD curves are shown in the supplementary material (Figure 3S). […] We then evaluated the ability of the porphyrin‐peptide conjugates to affect the Aβ42’s aggregation process. This was accomplished by running a series of CD experiments on the binary systems in the same experimental conditions as the control CD measurements. A 5 μM Aβ42 sample was used as a positive control of the aggregation process (Figure 3, panel a). In this case, the curve profiles indicate that at 0 h, Aβ42 is predominantly in the random coil conformation, as evidenced by the negative ellipticity around 200 nm. […] The typical dichroic profile characterized by a negative ellipticity at λ=222 nm and a positive band at λ=200 is indicative of this event (Figure 3, panel a).
Spectra were recorded on a J‐810 spectrometer (Jasco, Japan) under a constant flow of N2 at room temperature. The CD measurements were performed in the wavelength regions (190–260 nm, 195–350 nm and 350–500 nm) using a 1 cm path length quartz cell. All aggregation kinetics were monitored up to 120 hours. The CD spectra were recorded for Aβ42 (5 μM and 20 μM) monomer in the absence or in the presence of porphyrin‐peptide conjugates (5 μM and 20 μM for the 1 : 1 molar ratios). Monomerized samples of Aβ42 (5 μM and 20 μM) were solubilized in 50 μL of NaOH 20 mM (2,5 %) and after were diluted with 1950 μL of 10 mM phosphate buffer at pH 7.4 pure or containing the solubilized conjugates.

Aβ42 = Aβ42 (Homo sapiens, UniProt P05067); assay: Sensing: induced CD in porphyrin Soret region with Aβ42; assay type: binding; conditions: Aβ42 20 μM, 1:1, 350–500 nm, 10 mM phosphate buffer pH 7.4
Description: The Grating‐Coupled Interferometry (GCI) is a widely used analytical technique for characterizing intermolecular interactions. It allows quantitative measurements of both the affinity and the kinetics of the binding events. This high sensitivity label‐free method was exploited to measure the interactions of Aβ42 with Cu‐Ph‐Pep , Ph‐Pep , and Zn‐Ph‐Pep (Figure 5S). Control experiments with pristine MCPTPyP and the peptide GPGKLVFF ( Pep ) were carried out for comparison. The calculated association and dissociation kinetic constants (kon and koff, respectively) and the thermodynamic binding constant (KD), are summarized in Table 1. The obtained values indicate that all the conjugates show good affinities with Aβ42. It is also clear from Table 1 that the peptide moiety is fundamental for the molecular recognition of the Aβ42 peptide.[48] […] For the sake of comparison, the CD spectra of the porphyrin‐peptide conjugates at 20 μM were also recorded in the same experimental conditions, both in the far‐UV and Visible regions (Figure 6S).
Spectra were recorded on a J‐810 spectrometer (Jasco, Japan) under a constant flow of N2 at room temperature. […] All aggregation kinetics were monitored up to 120 hours. The CD spectra were recorded for Aβ42 (5 μM and 20 μM) monomer in the absence or in the presence of porphyrin‐peptide conjugates (5 μM and 20 μM for the 1 : 1 molar ratios). […]

[2] = Porphyrin fluorescence in buffer; assay type: physicochemical; conditions: 5 μM, 10 mM phosphate buffer pH 7.4, excitation 425 nm; vs pristine MCPTPyP
Text: Peptide conjugation influences the spectral features of the porphyrin chromophore as evidenced by the red shift in the absorption maximum in the region of the Soret band region. The Q bands are also affected, particularly in the Cu‐Ph‐Pep and Zn‐Ph‐Pep compounds (Figure 1). In this case the presence of a metal ion within the porphyrin's core might contribute to the observed spectral profile of these compounds. […] The fluorescence spectra of the investigated systems were also acquired in view of the interaction of the studied conjugates with cells (see below biological section).[41] The fluorescence spectra were recorded with the photoexcitation at 425±5 nm, in 10 mM phosphate buffer pH 7.4 and 5 μM concentration. The emission spectrum of the porphyrin precursor MCPTPyP ( Ph ) was also obtained for the sake of comparison.
Spectra were recorded on a Horiba Fluoro‐max‐4 spectrofluorometer from 440–800 nm in 1 nm steps, at an excitation wavelength λexc=425 nm, at room temperature. The final fluorescence spectra represent averages of at least three measurements. Bandwidths of 5 nm for both excitation and emission were used. The sample of the compound used to record absorption spectra were the same as those for the CD spectra.

Aβ42, sequence (P05067 672-713 limits assumed): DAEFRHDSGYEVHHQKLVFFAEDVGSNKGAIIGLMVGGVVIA

SMILES: COC(=O)[C@H](Cc1cn(CCCC[C@H](NC(=O)CNC(C)=O)C(=O)N2CCC[C@H]2C(=O)NCC(=O)N[C@@H](CCCCN)C(=O)N[C@@H](CC(C)C)C(=O)N[C@H](C(=O)N[C@@H](Cc2ccccc2)C(=O)N[C@@H](Cc2ccccc2)C(N)=O)C(C)C)nn1)NC(=O)c1ccc(-c2c3nc(c(-c4cc[n+](C)cc4)c4ccc([nH]4)c(-c4cc[n+](C)cc4)c4nc(c(-c5cc[n+](C)cc5)c5ccc2[nH]5)C=C4)C=C3)cc1 [Zn‐Ph‐Pep]
- propensity to adopt β-sheet conformation (conjugate alone) [1]: being faster in this process
- induced CD signal in Soret region with Aβ42 (Aβ42): induced dichroic signal; also recorded: generates a distinct CD signal
- fluorescence emission intensity [2]: somewhat decreased
